Results from the Human Domainome abundance scans (Beltran et al. 2025).
± gives the uncertainty stated by the source.

Test: abundance fitness (aPCA) (normalised: wild type 0, dead -1); higher = more abundant; growth selection in yeast, the domain comes from the species named

Substance | abundance fitness (Bacillus caldolyticus) | abundance fitness (Homo sapiens)
Cold shock protein CspB E21R, P41016 | 0.011 ± 0.036 | 
Cold shock protein CspB G22P, P41016 | 0.032 ± 0.047 | 
Cold shock protein CspB I18R, P41016 | -0.908 ± 0.044 | 
Cold shock protein CspB S24E, P41016 | 0.012 ± 0.053 | 
Cold shock protein CspB V20G, P41016 | 0.004 ± 0.039 | 
Gamma-crystallin C A162C, P07315 |  | -0.092 ± 0.14
Gamma-crystallin C L167W, P07315 |  | -0.575 ± 0.23
Gamma-crystallin C R153W, P07315 |  | -0.775 ± 0.22
Scaffold attachment factor B1 A41C, Q15424 |  | -0.317 ± 0.08
Scaffold attachment factor B1 A41D, Q15424 |  | -0.204 ± 0.064
Scaffold attachment factor B1 A41E, Q15424 |  | -0.049 ± 0.062
Scaffold attachment factor B1 A41F, Q15424 |  | -0.145 ± 0.053
Scaffold attachment factor B1 A41G, Q15424 |  | -0.095 ± 0.063
Scaffold attachment factor B1 A41H, Q15424 |  | -0.449 ± 0.11
Scaffold attachment factor B1 A41I, Q15424 |  | -0.114 ± 0.073
Scaffold attachment factor B1 A41K, Q15424 |  | -0.205 ± 0.068
Scaffold attachment factor B1 A41L, Q15424 |  | -0.12 ± 0.055
Scaffold attachment factor B1 A41M, Q15424 |  | -0.142 ± 0.061
Scaffold attachment factor B1 A41N, Q15424 |  | -0.311 ± 0.1
Scaffold attachment factor B1 A41Q, Q15424 |  | -0.257 ± 0.072
Scaffold attachment factor B1 A41R, Q15424 |  | -0.12 ± 0.051
Scaffold attachment factor B1 A41S, Q15424 |  | -0.128 ± 0.053
Scaffold attachment factor B1 A41T, Q15424 |  | -0.164 ± 0.059

Substance | abundance fitness (Bacillus caldolyticus) | abundance fitness (Homo sapiens)
Scaffold attachment factor B1 A41V, Q15424 |  | -0.105 ± 0.053
Scaffold attachment factor B1 A41W, Q15424 |  | -0.122 ± 0.049
Scaffold attachment factor B1 A41Y, Q15424 |  | -0.176 ± 0.069
Scaffold attachment factor B1 A64C, Q15424 |  | -0.016 ± 0.077
Scaffold attachment factor B1 A64D, Q15424 |  | -0.601 ± 0.11
Scaffold attachment factor B1 A64F, Q15424 |  | -0.317 ± 0.089
Scaffold attachment factor B1 A64G, Q15424 |  | -0.527 ± 0.053
Scaffold attachment factor B1 A64H, Q15424 |  | -0.132 ± 0.082
Scaffold attachment factor B1 A64I, Q15424 |  | -0.109 ± 0.073
Scaffold attachment factor B1 A64K, Q15424 |  | -0.228 ± 0.08
Scaffold attachment factor B1 A64L, Q15424 |  | -0.146 ± 0.052
Scaffold attachment factor B1 A64M, Q15424 |  | -0.416 ± 0.1
Scaffold attachment factor B1 A64N, Q15424 |  | -0.551 ± 0.15
Scaffold attachment factor B1 A64P, Q15424 |  | -0.603 ± 0.087
Scaffold attachment factor B1 A64Q, Q15424 |  | -0.162 ± 0.086
Scaffold attachment factor B1 A64R, Q15424 |  | -0.236 ± 0.048
Scaffold attachment factor B1 A64T, Q15424 |  | -0.125 ± 0.078
Scaffold attachment factor B1 A64W, Q15424 |  | -0.249 ± 0.062
Scaffold attachment factor B1 A64Y, Q15424 |  | -0.519 ± 0.12
Scaffold attachment factor B1 D33A, Q15424 |  | -0.303 ± 0.049
Scaffold attachment factor B1 D33C, Q15424 |  | -0.354 ± 0.061
Scaffold attachment factor B1 D33E, Q15424 |  | -0.209 ± 0.078
Scaffold attachment factor B1 D33F, Q15424 |  | -0.715 ± 0.063

Substance | abundance fitness (Bacillus caldolyticus) | abundance fitness (Homo sapiens)
Scaffold attachment factor B1 D33G, Q15424 |  | -0.281 ± 0.053
Scaffold attachment factor B1 D33H, Q15424 |  | -0.262 ± 0.1
Scaffold attachment factor B1 D33I, Q15424 |  | -0.88 ± 0.12
Scaffold attachment factor B1 D33K, Q15424 |  | -0.451 ± 0.069
Scaffold attachment factor B1 D33L, Q15424 |  | -0.437 ± 0.06
Scaffold attachment factor B1 D33M, Q15424 |  | -0.235 ± 0.055
Scaffold attachment factor B1 D33N, Q15424 |  | -0.291 ± 0.068
Scaffold attachment factor B1 D33P, Q15424 |  | -0.726 ± 0.069
Scaffold attachment factor B1 D33Q, Q15424 |  | -0.192 ± 0.069
Scaffold attachment factor B1 D33S, Q15424 |  | -0.15 ± 0.054
Scaffold attachment factor B1 D33T, Q15424 |  | -0.308 ± 0.077
Scaffold attachment factor B1 D33V, Q15424 |  | -0.493 ± 0.054
Scaffold attachment factor B1 D33W, Q15424 |  | -0.644 ± 0.062
Scaffold attachment factor B1 D33Y, Q15424 |  | -0.813 ± 0.099
Scaffold attachment factor B1 D38A, Q15424 |  | -0.388 ± 0.056
Scaffold attachment factor B1 D38E, Q15424 |  | -0.095 ± 0.059
Scaffold attachment factor B1 D38F, Q15424 |  | -0.874 ± 0.084
Scaffold attachment factor B1 D38G, Q15424 |  | -0.558 ± 0.051
Scaffold attachment factor B1 D38H, Q15424 |  | -0.428 ± 0.089
Scaffold attachment factor B1 D38I, Q15424 |  | -0.767 ± 0.11
Scaffold attachment factor B1 D38L, Q15424 |  | -0.683 ± 0.055
Scaffold attachment factor B1 D38M, Q15424 |  | -0.536 ± 0.071
Scaffold attachment factor B1 D38N, Q15424 |  | -0.414 ± 0.092

Substance | abundance fitness (Bacillus caldolyticus) | abundance fitness (Homo sapiens)
Scaffold attachment factor B1 D38P, Q15424 |  | -0.899 ± 0.057
Scaffold attachment factor B1 D38Q, Q15424 |  | -0.107 ± 0.069
Scaffold attachment factor B1 D38R, Q15424 |  | -0.618 ± 0.055
Scaffold attachment factor B1 D38S, Q15424 |  | -0.446 ± 0.059
Scaffold attachment factor B1 D38T, Q15424 |  | -0.307 ± 0.072
Scaffold attachment factor B1 D38V, Q15424 |  | -0.629 ± 0.052
Scaffold attachment factor B1 D38W, Q15424 |  | -0.742 ± 0.067
Scaffold attachment factor B1 D38Y, Q15424 |  | -0.913 ± 0.12
Scaffold attachment factor B1 D49A, Q15424 |  | -0.329 ± 0.071
Scaffold attachment factor B1 D49E, Q15424 |  | -0.346 ± 0.077
Scaffold attachment factor B1 D49F, Q15424 |  | -0.762 ± 0.13
Scaffold attachment factor B1 D49G, Q15424 |  | -0.444 ± 0.062
Scaffold attachment factor B1 D49H, Q15424 |  | -0.396 ± 0.097
Scaffold attachment factor B1 D49I, Q15424 |  | -0.514 ± 0.1
Scaffold attachment factor B1 D49K, Q15424 |  | -0.275 ± 0.072
Scaffold attachment factor B1 D49L, Q15424 |  | -0.393 ± 0.061
Scaffold attachment factor B1 D49M, Q15424 |  | -0.464 ± 0.062
Scaffold attachment factor B1 D49N, Q15424 |  | -0.14 ± 0.061
Scaffold attachment factor B1 D49P, Q15424 |  | -0.285 ± 0.068
Scaffold attachment factor B1 D49Q, Q15424 |  | -0.328 ± 0.072
Scaffold attachment factor B1 D49R, Q15424 |  | -0.344 ± 0.052
Scaffold attachment factor B1 D49S, Q15424 |  | -0.219 ± 0.062
Scaffold attachment factor B1 D49T, Q15424 |  | -0.552 ± 0.081

Substance | abundance fitness (Bacillus caldolyticus) | abundance fitness (Homo sapiens)
Scaffold attachment factor B1 D49V, Q15424 |  | -0.408 ± 0.057
Scaffold attachment factor B1 D49Y, Q15424 |  | -0.5 ± 0.057
Scaffold attachment factor B1 D67C, Q15424 |  | -0.244 ± 0.063
Scaffold attachment factor B1 D67E, Q15424 |  | -0.152 ± 0.089
Scaffold attachment factor B1 D67F, Q15424 |  | -0.293 ± 0.082
Scaffold attachment factor B1 D67G, Q15424 |  | -0.131 ± 0.046
Scaffold attachment factor B1 D67H, Q15424 |  | -0.333 ± 0.051
Scaffold attachment factor B1 D67I, Q15424 |  | -0.257 ± 0.079
Scaffold attachment factor B1 D67K, Q15424 |  | -0.258 ± 0.091
Scaffold attachment factor B1 D67L, Q15424 |  | -0.278 ± 0.052
Scaffold attachment factor B1 D67M, Q15424 |  | -0.167 ± 0.1
Scaffold attachment factor B1 D67N, Q15424 |  | -0.125 ± 0.091
Scaffold attachment factor B1 D67Q, Q15424 |  | -0.123 ± 0.077
Scaffold attachment factor B1 D67R, Q15424 |  | -0.168 ± 0.049
Scaffold attachment factor B1 D67T, Q15424 |  | -0.237 ± 0.071
Scaffold attachment factor B1 D67V, Q15424 |  | -0.19 ± 0.063
Scaffold attachment factor B1 D67W, Q15424 |  | -0.474 ± 0.048
Scaffold attachment factor B1 D67Y, Q15424 |  | -0.263 ± 0.13
Scaffold attachment factor B1 D73A, Q15424 |  | -0.196 ± 0.065
